According to patent US20230265179A1 (TWIST BIOSCIENCE, published 2023):

Target: T1, CD40L over-expressed on Expi293 cells (UniProt P29965 1-261, limits assumed)
T1 construct: whole, on cells; also called cytokine over-expressing Expi293 cells
T1 sequence (looked up): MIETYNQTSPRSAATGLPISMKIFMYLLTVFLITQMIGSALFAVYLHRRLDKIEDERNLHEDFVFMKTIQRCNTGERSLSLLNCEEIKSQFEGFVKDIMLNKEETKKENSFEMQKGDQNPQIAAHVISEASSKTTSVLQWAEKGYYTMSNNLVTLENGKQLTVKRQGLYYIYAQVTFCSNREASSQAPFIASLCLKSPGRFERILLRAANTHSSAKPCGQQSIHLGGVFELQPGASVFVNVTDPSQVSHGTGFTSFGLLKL
Assay: flow cytometry, 100 nM antibody, CD40L-Expi293 vs parent Expi293 cells;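 note: ratio is the mean fluorescence intensity on CD40L-overexpressing Expi293 cells divided by the mean fluorescence intensity on parental Expi293 cells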
Protocol: All incubations and washes were in buffer containing PBS+1% BSA. MFI Ratio is defined by the mean fluorescence intensity (MFI) of the cytokine over-expressing Expi293 cell over the Expi293 parent cell. […] EC50 was calculated in GraphPad Prism.

Row | 100 nM FACS (MFI Ratio) [ratio] | Binder
1 | 0.6 | CD40L-170 (antibody, V domains shown, IgG2) VH: EVQLLESGGGLVQPGGSLRLSCAASGGYNFKDYMHWVRQAPGKGLEWVSSIGRHGGRTYYADSVKGRFTISRDNSKNTLYLQMNSLRAEDTAVYYCAKDLGQGFDYWGQGTLVTVSS VL: DIQMTQSPSSLSASVGDRVTITCRASQDVSSGVAWYQQKPGKAPKLLIYQMSHLASGVPSRFSGSGSGTDFTLTISSLQPEDFATYYCSSQDTVTRVLGQGTKVEIK
2 | 0.4 | CD40L-169 (antibody, V domains shown, IgG2) VH: EVQLLESGGGLVQPGGSLRLSCAASGFDFSDYEMSWVRQAPGKGLEWVSSITSEGGSTYYADSVKGRFTISRDNSKNTLYLQMNSLRAEDTAVYYCAKPDVLFDYWGQGTLVTVSS VL: DIQMTQSPSSLSASVGDRVTITCSGDKLGDKYAYWYQQKPGKAPKLLIYFTSTLAAGVPSRFSGSGSGTDFTLTISSLQPEDFATYYCQQSYSSAPTFGQGTKVEIK
3 | 0.2 | CD40L-168 (antibody, V domains shown, IgG2) VH: EVQLLESGGGLVQPGGSLRLSCAASGFDFSDYEMSWVRQAPGKGLEWVSSITSEGGSTYYADSVKGRFTISRDNSKNTLYLQMNSLRAEDTAVYYCAKPDVLFDYWGQGTLVTVSS VL: DIQMTQSPSSLSASVGDRVTITCSGDNLGDKYVHWYQQKPGKAPKLLIYGKNIRPSGVPSRFSGSGSGTDFTLTISSLQPEDFATYYCQSGSSSANAVFGQGTKVEIK
4 | 0.4 | CD40L-175 (antibody, V domains shown, IgG2) VH: EVQLLESGGGLVQPGGSLRLSCAASGFDFSDYEMSWVRQAPGKGLEWVSSITSEGGSTYYADSVKGRFTISRDNSKNTLYLQMNSLRAEDTAVYYCAKPDKDFDYWGQGTLVTVSS VL: DIQMTQSPSSLSASVGDRVTITCRASQTIGDYLNWYQQKPGKAPKLLIYDASNLQSGVPSRFSGSGSGTDFTLTISSLQPEDFATYYCQQSYELPLTFGQGTKVEIK
5 | 4.3 | CD40L-180 (antibody, V domains shown, IgG2) VH: EVQLLESGGGLVQPGGSLRLSCAASGFDFSDYEMSWVRQAPGKGLEWVSSITSEGGSTYYADSVKGRFTISRDNSKNTLYLQMNSLRAEDTAVYYCAKPDVLFDYWGQGTLVTVSS VL: DIQMTQSPSSLSASVGDRVTITCRASQSILSYLNWYQQKPGKAPKLLIYGASSLESGVPSRFSGSGSGTDFTLTISSLQPEDFATYYCQQTYDTPLTFGQGTKVEIK

Continued, binder first:

Row | Binder | 100 nM FACS (MFI Ratio) [ratio]
6 | CD40L-156 (antibody, V domains shown, IgG2) VH: EVQLLESGGGLVQPGGSLRLSCAASGFMFSWYDMGWVRQAPGKGLEWVSSIDWHGWVTYYADSVKGRFTISRDNSKNTLYLQMNSLRAEDTAVYYCAKAYYGGFDYWGQGTLVTVSS VL: DIQMTQSPSSLSASVGDRVTITCRASQPIGPDLLWYQQKPGKAPKLLIYDNTNRPSGVPSRFSGSGSGTDFTLTISSLQPEDFATYYCQQSQAAPLTFGQGTKVEIK | 1.3
7 | CD40L-140 (VHH) VHH: EVQLVESGGGLVQPGGSLRLSCAASGNIFSHNAMGWFRQAPGKEREFVASMRGSGSTVYADSVKGRFTISADNSKNTAYLQMNSLKPEDTAVYYCAKSVYGDYIFDYWGQGTLVTVSS | 4.3
8 | CD40L-162 (antibody, V domains shown, IgG2) VH: EVQLLESGGGLVQPGGSLRLSCAASGGYNFRDYMHWVRQAPGKGLEWVAEIRNKANNHATKYADSVKGRFTISRDNSKNTLYLQMNSLRAEDTAVYYCAKNLGQGFDYWGQGTLVTVSS VL: DIQMTQSPSSLSASVGDRVTITCRTSQDISNYLNWYQQKPGKAPKLLIYATSNLASGVPSRFSGSGSGTDFTLTISSLQPEDFATYYCQQSYSSAPMFGQGTKVEIK | 0.3
9 | CD40L-158 (antibody, V domains shown, IgG2) VH: EVQLLESGGGLVQPGGSLRLSCAASGGYNFRDYMHWVRQAPGKGLEWVSSIGRHGGRTYYADSVKGRFTISRDNSKNTLYLQMNSLRAEDTAVYYCAKDLGQGFDYWGQGTLVTVSS VL: DIQMTQSPSSLSASVGDRVTITCRASQDVSSGVAWYQQKPGKAPKLLIYQMSHLASGVPSRFSGSGSGTDFTLTISSLQPEDFATYYCSSQDTVTRVLGQGTKVEIK | 1.5
10 | CD40L-167 (antibody, V domains shown, IgG2) VH: EVQLLESGGGLVQPGGSLRLSCAASGGYNFRDYMHWVRQAPGKGLEWVSSISNSGGSTYYADSVKGRFTISRDNSKNTLYLQMNSLRAEDTAVYYCAKNLGQGFDYWGQGTLVTVSS VL: DIQMTQSPSSLSASVGDRVTITCRASESVEYHGTSLMHWYQQKPGKAPKLLIYGTSNLESGVPSRFSGSGSGTDFTLTISSLQPEDFATYYCQQVVWRPFTFGQGTKVEIK | 1.4
11 | CD40L-159 (antibody, V domains shown, IgG2) VH: EVQLLESGGGLVQPGGSLRLSCAASGFDFSDYEMSWVRQAPGKGLEWVSSITSEGGSTYYADSVKGRFTISRNNSKNTLYLQMNSLRAEDTAVYYCAKPDVLFDYWGQGTLVTVSS VL: DIQMTQSPSSLSASVGDRVTITCRASQDISNYLNWYQQKPGKAPKLLIYGKKNRPSGVPSRFSGSGSGTDFTLTISSLQPEDFATYYCQQGYTRTDIDNTFGQGTKVEIK | 0.3
12 | CD40L-160 (antibody, V domains shown, IgG2) VH: EVQLLESGGGLVQPGGSLRLSCAASGFDFSDYEMSWVRQAPGKGLEWVSSITSEGGSTYYADSVKGRFTISRDNSKNTLYLQMNSLRAEDTAVYYCAKPDVLFDYWGQGTLVTVSS VL: DIQMTQSPSSLSASVGDRVTITCRASQDVSSGVAWYQQKPGKAPKLLIYGKKNRPSGVPSRFSGSGSGTDFTLTISSLQPEDFATYYCQAWDRDTGVFGQGTKVEIK | 0.3
13 | CD40L-161 (antibody, V domains shown, IgG2) VH: EVQLLESGGGLVQPGGSLRLSCAASGFDFSDYEMSWVRQAPGKGLEWVSSITSEGGSTYYADSVKGRFTISRDNSKNTLYLQMNSLRAEDTAVYYCAKPDVLFDYWGQGTLVTVSS VL: DIQMTQSPSSLSASVGDRVTITCRASQDVSSGVAWYQQKPGKAPKLLIYATSTLQSGVPSRFSGSGSGTDFTLTISSLQPEDFATYYCQQSFSVPAFGQGTKVEIK | 0.9
14 | CD40L-164 (antibody, V domains shown, IgG2) VH: EVQLLESGGGLVQPGGSLRLSCAASGFDFSDYEMSWVRQAPGKGLEWVSSITSEGGSTYYADSVKGRFTISRDNSKNTLYLQMNSLRAEDTAVYYCAKPDVLFDYWGQGTLVTVSS VL: DIQMTQSPSSLSASVGDRVTITCRASSSVSYMHWYQQKPGKAPKLLIYAASDLESGVPSRFSGSGSGTDFTLTISSLQPEDFATYYCSQSTHVPTFGQGTKVEIK | 0.4
15 | CD40L-165 (antibody, V domains shown, IgG2) VH: EVQLLESGGGLVQPGGSLRLSCAASGFDFSDYEMSWVRQAPGKGLEWVSSITSEGGSTYYADSVKGRFTISRDNSKNTLYLQMNSLRAEDTAVYYCAKPDVLFDYWGQGTLVTVSS VL: DIQMTQSPSSLSASVGDRVTITCRTSQDISNYLNWYQQKPGKAPKLLIYGASTLQSGVPSRFSGSGSGTDFTLTISSLQPEDFATYYCQQSYDNPLTFGQGTKVEIK | 0.5
16 | CD40L-166 (antibody, V domains shown, IgG2) VH: EVQLLESGGGLVQPGGSLRLSCAASGFDFSDYEMSWVRQAPGKGLEWVSSITSEGGSTYYADSVKGRFTISRDNSKNTLYLQMNSLRAEDTAVYYCAKPDVLFDYWGQGTLVTVSS VL: DIQMTQSPSSLSASVGDRVTITCRASQSIISYVNWYQQKPGKAPKLLIYGASNLHSGVPSRFSGSGSGTDFTLTISSLQPEDFATYYCQQSYSTPTFGQGTKVEIK | 1.1
